Measured values from patent publication US20150114310A1.

Columns and labels:
[1] = molecular target: Anti-roIFNT antibody; assay: competitive RIA, unlabelled IFNT displacing 125I-roIFNT from the antibody; less dilute primary antibody
[2] = molecular target: Anti-roIFNT antibody; assay: competitive RIA, unlabelled IFNT displacing 125I-roIFNT from the antibody; primary antibody at 1:60,000

amount of ligand required to displace 50% binding [1]: 1.5 ng
amount of ligand required to displace 50% binding [2]: 0.4 ng
Substance: recombinant ovine IFNT (roIFNT) (ligand)
